T1: IL-18 receptor (IL-18Rα / IL-18Rβ heterodimer) on HEK-Blue IL-18 reporter cells (UniProt Q13478 19-541; O95256 20-599, limits assumed)
T1 sequence (looked up) 1: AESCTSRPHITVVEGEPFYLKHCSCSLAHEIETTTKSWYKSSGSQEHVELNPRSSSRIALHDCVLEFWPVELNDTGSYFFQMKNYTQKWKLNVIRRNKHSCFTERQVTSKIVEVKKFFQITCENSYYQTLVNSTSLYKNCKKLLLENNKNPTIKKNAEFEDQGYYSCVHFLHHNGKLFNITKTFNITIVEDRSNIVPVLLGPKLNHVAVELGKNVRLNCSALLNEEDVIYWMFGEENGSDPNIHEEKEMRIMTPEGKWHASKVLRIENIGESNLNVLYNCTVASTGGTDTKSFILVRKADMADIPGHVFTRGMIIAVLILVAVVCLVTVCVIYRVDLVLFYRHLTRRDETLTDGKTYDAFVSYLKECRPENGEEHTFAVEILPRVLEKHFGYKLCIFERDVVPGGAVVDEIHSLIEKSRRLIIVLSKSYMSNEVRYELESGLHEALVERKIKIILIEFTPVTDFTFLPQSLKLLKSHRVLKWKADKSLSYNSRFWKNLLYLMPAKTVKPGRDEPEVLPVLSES
T1 sequence (looked up) 2: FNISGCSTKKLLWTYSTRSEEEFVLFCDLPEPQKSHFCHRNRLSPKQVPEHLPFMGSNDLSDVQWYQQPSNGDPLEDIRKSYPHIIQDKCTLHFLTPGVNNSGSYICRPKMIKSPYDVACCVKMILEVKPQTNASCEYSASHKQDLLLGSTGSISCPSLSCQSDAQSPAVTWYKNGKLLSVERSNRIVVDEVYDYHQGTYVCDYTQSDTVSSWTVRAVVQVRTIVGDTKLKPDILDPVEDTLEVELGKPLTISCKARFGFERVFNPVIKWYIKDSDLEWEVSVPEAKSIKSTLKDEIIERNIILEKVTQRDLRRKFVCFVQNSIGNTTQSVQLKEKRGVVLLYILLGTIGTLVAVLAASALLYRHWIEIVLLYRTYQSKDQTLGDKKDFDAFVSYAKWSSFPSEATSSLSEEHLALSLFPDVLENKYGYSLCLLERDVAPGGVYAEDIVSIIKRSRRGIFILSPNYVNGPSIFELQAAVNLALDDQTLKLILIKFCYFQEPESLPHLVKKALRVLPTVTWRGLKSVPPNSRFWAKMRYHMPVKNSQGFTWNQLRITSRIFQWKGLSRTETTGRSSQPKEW

T2: Human IL-18BP (amino acids 31-194), biotinylated (human, UniProt O95998 31-194, biotin on the AviTag (BirA ligase) where used biotinylated)
T2 construct: Soluble decoy receptor; also called hIL-18BP; recombinant IL-18BP
T2 sequence: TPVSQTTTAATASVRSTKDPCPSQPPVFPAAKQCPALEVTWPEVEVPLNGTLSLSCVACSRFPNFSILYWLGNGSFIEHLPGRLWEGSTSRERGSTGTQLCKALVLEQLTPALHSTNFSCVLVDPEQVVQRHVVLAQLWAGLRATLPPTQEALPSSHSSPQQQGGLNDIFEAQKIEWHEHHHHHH

B1: SEQ ID NO: 6 (SEQ ID NO: 89 plus C38S/C68S) (ligand)
chain: YFGKLESKLSVIRNLNDQVLFIDQGNRPLFEDMTDSDSRDNAPRTIFIISKYSDSLARGLAVTISVKSEKISTLSCENKIISFKEMNPPDNIKDTKSDIIFFQRDVPGHSRKMQFESSSYEGYFLACEKERDLFKLILKKEDELGDRSIMFTVQNED
B2: SEQ ID NO: 16 (SEQ ID NO: 89 plus C38S/C68G) (ligand)
chain: YFGKLESKLSVIRNLNDQVLFIDQGNRPLFEDMTDSDSRDNAPRTIFIISKYSDSLARGLAVTISVKGEKISTLSCENKIISFKEMNPPDNIKDTKSDIIFFQRDVPGHSRKMQFESSSYEGYFLACEKERDLFKLILKKEDELGDRSIMFTVQNED
B3: SEQ ID NO: 17 (SEQ ID NO: 89 plus C38S/C68A) (ligand)
chain: YFGKLESKLSVIRNLNDQVLFIDQGNRPLFEDMTDSDSRDNAPRTIFIISKYSDSLARGLAVTISVKAEKISTLSCENKIISFKEMNPPDNIKDTKSDIIFFQRDVPGHSRKMQFESSSYEGYFLACEKERDLFKLILKKEDELGDRSIMFTVQNED
B4: SEQ ID NO: 18 (SEQ ID NO: 89 plus C38S/C68V) (ligand)
chain: YFGKLESKLSVIRNLNDQVLFIDQGNRPLFEDMTDSDSRDNAPRTIFIISKYSDSLARGLAVTISVKVEKISTLSCENKIISFKEMNPPDNIKDTKSDIIFFQRDVPGHSRKMQFESSSYEGYFLACEKERDLFKLILKKEDELGDRSIMFTVQNED
B5: SEQ ID NO: 20 (SEQ ID NO: 89 plus C38S/C68E) (ligand)
chain: YFGKLESKLSVIRNLNDQVLFIDQGNRPLFEDMTDSDSRDNAPRTIFIISKYSDSLARGLAVTISVKEEKISTLSCENKIISFKEMNPPDNIKDTKSDIIFFQRDVPGHSRKMQFESSSYEGYFLACEKERDLFKLILKKEDELGDRSIMFTVQNED
B6: SEQ ID NO: 21 (SEQ ID NO: 89 plus C38S/C68N) (ligand)
chain: YFGKLESKLSVIRNLNDQVLFIDQGNRPLFEDMTDSDSRDNAPRTIFIISKYSDSLARGLAVTISVKNEKISTLSCENKIISFKEMNPPDNIKDTKSDIIFFQRDVPGHSRKMQFESSSYEGYFLACEKERDLFKLILKKEDELGDRSIMFTVQNED
B7: SEQ ID NO: 94 (human D2D IL-18 variant hD2D-5F10) (ligand)
chain: HFGKLESKLSVIRNLNGQVLFIDQGNRPLFADMEASPCRDNAPRTIFIISFYKDSQPRGLAVTISVKCEKISTLSCENKIISFKEMNPPDNIKDTKSDIIFFLRSVPGHDNKMQFESSSYEGYFLACEKERDLFKLILKKEDELGDRSIMFTVQNED
notes: Engineered decoy-to-the-decoy variant
B8: SEQ ID NO: 98 (human D2D IL-18 variant hD2D-5F02) (ligand)
chain: HFGKLESKLSVIRNLNGQVLFIDQGNRPLFGDMEASPCRDNAPRTIFIISFYKDSQPRGMAVTISVKCEKISTLSCENKIISFKEMNPPDNIKDTKSDIIFFIRSVPGADNKLQFESSSYEGYFLACEKERDLFKLILKKEDELGDRSIMFTVQNED
notes: as for B7
B9: SEQ ID NO: 99 (human D2D IL-18 variant hD2D-5F01) (ligand)
chain: HFGKLESKLSVIRNLNGQVLFIDQGNRPLFTDMTSSDCRDKAPRTIFIISFYKDSQPRGLAVTISVKCEKISTLSCENKIISFKEMNPPDNIKDTKSDIIFFLRSVPGPDNKFQFESSSYEGYFLACEKERDLFKLILKKEDELGDRSIMFTVQNED
notes: as for B7
B10: SEQ ID NO: 101 (human D2D IL-18 variant hD2D-5E08) (ligand)
chain: YFGKLESKLSVIRNLNGQVLFIDQGNRPLFTDMTASPCRDNAPRTIFIISFYKDSQPRGLAVTISVKCEKISTLSCENKIISFKEMNPPDNIKDTKSDIIFFLRSVPGHDNKIQFESSSYEGYFLACEKERSLFKLILKKEDELGDRSIMFTVQNED
notes: as for B7
B11: SEQ ID NO: 120 (human D2D IL-18 variant hD2D-5B02) (ligand)
chain: YFGKLESKLSVIRNLNGQVLFIDQGNRPLFADMTSKRCRDNAPRTIFIISLYKDSQPRGFAVTISVKCEKISTLSCENKIISFKEMNPPDNIKDTKSDIIFFIRSVPGHDNKIQFESSSYEGYFLACEKERDLFKLILKKEDELGDRSIMFTVQNED
notes: as for B7
B12: SEQ ID NO: 123 (human D2D IL-18 consensus hD2D-CS1) (ligand)
chain: YFGKLESKLSVIRNLNGQVLFIDQGNRPLFADMTDSDCRDNAPRTIFIISMYKDSQPRGMAVTISVKCEKISTLSCENKIISFKEMNPPDNIKDTKSDIIFFLRSVPGHDNKMQFESSSYEGYFLACEKERDLFKLILKKEDELGDRSIMFTVQNED
notes: as for B7
B13: SEQ ID NO: 124 (human D2D IL-18 consensus hD2D-CS2) (ligand)
chain: YFGKLESKLSVIRNLNGQVLFIDQGNRPLFADMTSSDCRDNAPRTIFIISFYKDSQPRGMAVTISVKCEKISTLSCENKIISFKEMNPPDNIKDTKSDIIFFLRSVPGHDNKMQFESSSYEGYFLACEKERDLFKLILKKEDELGDRSIMFTVQNED
notes: as for B7
B14: SEQ ID NO: 125 (human D2D IL-18 consensus hD2D-CS3) (ligand)
chain: YFGKLESKLSVIRNLNGQVLFIDQGNRPLFADMESSDCRDNAPRTIFIISFYKDSQPRGLAVTISVKCEKISTLSCENKIISFKEMNPPDNIKDTKSDIIFFLRSVPGHDNKMQFESSSYEGYFLACEKERDLFKLILKKEDELGDRSIMFTVQNED
notes: as for B7

These binders were tested against T1, IL-18 receptor (IL-18Rα / IL-18Rβ …) (assay: cell-based or functional assay).

Binder	EC50-#1 (M), HEK-Blue reporter	EC50-#2 (M), HEK-Blue reporter
B1	1.96e-10 M	1.3e-10 M
B2	2.05e-10 M	1.54e-10 M
B3	1.41e-10 M	1.09e-10 M
B4	5.19e-11 M	4.48e-11 M
B5	1.35e-10 M	1.62e-10 M
B6	1.28e-10 M	1.24e-10 M

The binders below were run against T2, Human IL-18BP (amino acids 31-194), … (assay: on-yeast binding isotherm (flow cytometry), drawn summary table, column IL18BP (KD)).

Binder	Kd
B7	6.4 nM
B8	5.4 nM
B9	4.8 nM
B10	8.8 nM
B11	4.2 nM
B12	5.9 nM
B13	7.9 nM
B14	8.9 nM

Source: patent publication US20230277625A1 (SIMCHA IL 18, published 2023)
